Data on two molecules can be found in article PMC6475063 (Journal of the American Heart Association: Cardiovascular …, 2019).

For experiment [1], the target named is T1, YFP-tagged human AT1R (angiotensin II type 1 receptor) (human, UniProt P30556 1-359).
T1 sequence (looked up): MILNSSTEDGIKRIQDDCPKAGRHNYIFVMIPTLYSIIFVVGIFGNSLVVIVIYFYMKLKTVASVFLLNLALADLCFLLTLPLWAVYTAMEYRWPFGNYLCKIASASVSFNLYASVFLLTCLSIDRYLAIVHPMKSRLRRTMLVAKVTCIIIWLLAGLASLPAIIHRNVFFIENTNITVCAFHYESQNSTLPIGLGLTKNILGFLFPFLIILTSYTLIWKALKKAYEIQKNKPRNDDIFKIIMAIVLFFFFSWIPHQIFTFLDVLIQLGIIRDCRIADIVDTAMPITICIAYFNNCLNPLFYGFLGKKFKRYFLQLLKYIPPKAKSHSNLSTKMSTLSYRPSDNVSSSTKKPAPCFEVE
In words: FRET or BRET. (In general: Bioluminescence resonance energy transfer reports proximity on the nanometre scale.)

Experiment [2] has as its target T1, YFP-tagged human AT1R (angiotensin II …). In words: FRET or BRET. The source holds these as a separate data set.

B1: RLuc-tagged bovine β-arrestin2 (natural protein, UniProt P32120 1-420, looked up)
chain: MGEKPGTRVFKKSSPNCKLTVYLGKRDFVDHLDKVDPVDGVVLVDPDYLKDRKVFVTLTCAFRYGREDLDVLGLSFRKDLFIANYQAFPPTPNPPRPPTRLQERLLRKLGQHAHPFFFTIPQNLPCSVTLQPGPEDTGKACGVDFEIRAFCAKSLEEKSHKRNSVRLVIRKVQFAPEKPGPQPSAETTRHFLMSDRSLHLEASLDKELYYHGEPLNVNVHVTNNSTKTVKKIKVSVRQYADICLFSTAQYKCPVAQVEQDDQVSPSSTFCKVYTITPLLSNNREKRGLALDGKLKHEDTNLASSTIVKEGANKEVLGILVSYRVKVKLVVSRGGDVSVELPFVLMHPKPHDHIALPRPQSAATHPPTLLPSAVPETDAPVDTNLIEFETNYATDDDIVFEDFARLRLKGLKDEDYDDQFC
On to B1, for which, in experiment [1], the “relative change of BRET ratio, 2 min with Ang II” value is 89.7 % (Ang II for 10 minutes set to 100%); the “relative change of BRET ratio, 5 min with Ang II” value was 102 % (Ang II for 10 minutes set to 100%); the “relative change of BRET ratio, 10 min with Ang II” value is 100 % (Ang II for 10 minutes set to 100%); the “relative change of BRET ratio, 20 min with Ang II” value is 112 % (Ang II for 10 minutes set to 100%). Further, in experiment [1], the “relative change of BRET ratio, 30 min with Ang II” value is 93.9 % (Ang II for 10 minutes set to 100%). Further, the “EC50 of Ang II for the relative change of BRET ratio” value in experiment [2] is 6.3 nM.

B2: RLuc-tagged bovine β-arrestin1 (natural protein, UniProt P17870 1-418, looked up)
chain: MGDKGTRVFKKASPNGKLTVYLGKRDFVDHIDLVEPVDGVVLVDPEYLKERRVYVTLTCAFRYGREDLDVLGLTFRKDLFVANVQSFPPAPEDKKPLTRLQERLIKKLGEHAYPFTFEIPPNLPCSVTLQPGPEDTGKACGVDYEVKAFCAENLEEKIHKRNSVRLVIRKVQYAPERPGPQPTAETTRQFLMSDKPLHLEASLDKEIYYHGEPISVNVHVTNNTNKTVKKIKISVRQYADICLFNTAQYKCPVAMEEADDTVAPSSTFCKVYTLTPFLANNREKRGLALDGKLKHEDTNLASSTLLREGANREILGIIVSYKVKVKLVVSRGGLLGDLASSDVAVELPFTLMHPKPKEEPPHREVPEHETPVDTNLIELDTNDDDIVFEDFARQRLKGMKDDKEEEEDGTGSPRLNDR
In the case of B2, in experiment [1], the “relative change of BRET ratio, 2 min with Ang II” value is 89.1 % (Ang II for 10 minutes set to 100%); the “relative change of BRET ratio, 5 min with Ang II” value is 107 % (Ang II for 10 minutes set to 100%); the “relative change of BRET ratio, 10 min with Ang II” value was 100 % (Ang II for 10 minutes set to 100%); the “relative change of BRET ratio, 20 min with Ang II” value was 93.5 % (Ang II for 10 minutes set to 100%). In addition, in experiment [1], the “relative change of BRET ratio, 30 min with Ang II” value is 95.8 % (Ang II for 10 minutes set to 100%). Further, in experiment [2], the “EC50 of Ang II for the relative change of BRET ratio” value was determined as 6.7 nM.
